Assay results taken from patent US20230365711A1 (Hoffmann-La Roche, published 2023).

T1: huNABA-avi-his (hybrid protein N-A1-B3-A2: N and A1 domains of human BGP, B3 domain of human CEA, A2 domain … (human, biotinylated at the avi tag (in vivo, co-transfected biotin ligase)))
T1 construct: also called NABA-avi-his reagent; biotinylated NABA
T1 chain: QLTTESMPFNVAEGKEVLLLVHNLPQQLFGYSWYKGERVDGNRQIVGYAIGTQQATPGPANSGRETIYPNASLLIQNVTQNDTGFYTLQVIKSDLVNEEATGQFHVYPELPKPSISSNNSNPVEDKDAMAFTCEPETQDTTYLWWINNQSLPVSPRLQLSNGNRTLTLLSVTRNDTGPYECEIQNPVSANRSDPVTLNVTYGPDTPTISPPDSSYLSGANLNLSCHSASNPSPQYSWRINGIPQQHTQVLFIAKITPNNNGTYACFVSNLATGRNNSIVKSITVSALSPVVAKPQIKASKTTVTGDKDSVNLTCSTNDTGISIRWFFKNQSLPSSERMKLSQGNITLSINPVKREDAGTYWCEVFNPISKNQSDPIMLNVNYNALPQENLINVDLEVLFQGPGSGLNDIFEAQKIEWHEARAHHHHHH


How the values were obtained:
[1] = molecular target: T1, huNABA-avi-his (hybrid protein …); test: Biacore on immobilized NABA-avi-his; Bivalent Affinity
[2] = molecular target: T1, huNABA-avi-his (hybrid protein …); test: Proteon SPR, antibody analyte on biotinylated NABA (Neutravidin chip); column Ka (M)
From the text: (§1) Shown in FIG. 22 are Proteon (Biacore) sensorgrams obtained for the binding of the CDR-H3 antibody variants to the CEA antigen-harbouring chimeric protein NABA. […] The affinity matured precursor clone 5HFF12 and the parental antibody CH7A were included for direct comparison. All antibodies tested in this assay had 2F1 as the light chain. […] The relative affinity of each, measured in the bivalent form, is as follows: 5HFF12>CH7A (Y98A/D99Y)>CH7A (Y98A)>CH7A>CH7A (E102Q)>CH7A (D99Y)>CH7A (D99H)>CH7A (A103T)>CH7A (V101F)>CH7A (W95Y).

[3] = molecular target: T1, huNABA-avi-his (hybrid protein …); test: Proteon SPR, antibody analyte on biotinylated NABA (Neutravidin chip)
From the text: as §1

[4] = molecular target: T1, huNABA-avi-his (hybrid protein …); test: Proteon SPR, antibody analyte on biotinylated NABA (Neutravidin chip); column Ka (M)
[5] = molecular target: T1, huNABA-avi-his (hybrid protein …); test: Proteon SPR, antibody analyte on biotinylated NABA (Neutravidin chip)
[6] = molecular target: T1, huNABA-avi-his (hybrid protein …); test: Biacore, Fab on immobilized NABA-avi-his; column Monovalent Affinity

Row | Binder | Kd [1] [nM] | koff [1] [s⁻¹] | kon [1] [M⁻¹ s⁻¹] | kon [2] [M⁻¹ s⁻¹] | Kd [3] [nM] | further results
1 | H4E9 x 2F1 (bivalent) (antibody, V domains shown, bivalent form of the clone) VH: QVQLVQSGSELKKPGASVKVSCKASGYTFTEFGMNWVRQAPGQGLEWMGWINTKTGEATYIEEFKGRFVFSLDTSVSTAYLQISSLKAEDTAVYYCARWDFYDYVEAMDYWGQGTTVTVSS VL: DIQMTQSPSSLSASVGDRVTITCKASAAVGTYVAWYQQKPGKAPKLLIYSASYRKRGVPSRFSGSGSGTDFTLTISSLQPEDFATYYCHQYYTYPLFTFGQGTKLEIKR | 0.452 | 0.000191 | 423000 |  |  | 
2 | H4E9 x 3A1 (antibody, V domains shown, bivalent form) VH: QVQLVQSGSELKKPGASVKVSCKASGYTFTEFGMNWVRQAPGQGLEWMGWINTKTGEATYIEEFKGRFVFSLDTSVSTAYLQISSLKAEDTAVYYCARWDFYDYVEAMDYWGQGTTVTVSS VL: DIQMTQSPSSLSASVGDRVTITCKASANVGNNVAWYQQKPGKAPKLLIYLASNRSGGVPSRFSGSGSGTDFTLTISSLQPEDFATYYCHQYYTYPLFTFGQGTKLEIKR | 0.55 | 0.000136 | 246000 |  |  | 
3 | antibody with heavy chain CH7A (A103T) and light chain 2F1 (antibody, V domains shown, Bivalent form) VH: QVQLVQSGSELKKPGASVKVSCKASGYTFTEFGMNWVRQAPGQGLEWMGWINTKTGEATYVEEFKGRFVFSLDTSVSTAYLQISSLKAEDTAVYYCARWDFYDYVETMDYWGQGTTVTVSS VL: DIQMTQSPSSLSASVGDRVTITCKASAAVGTYVAWYQQKPGKAPKLLIYSASYRKRGVPSRFSGSGSGTDFTLTISSLQPEDFATYYCHQYYTYPLFTFGQGTKLEIKR |  |  |  | 25100 | 2.87 | 
4 | antibody with heavy chain CH7A (D99H) and light chain 2F1 (antibody, V domains shown, Bivalent form) VH: QVQLVQSGSELKKPGASVKVSCKASGYTFTEFGMNWVRQAPGQGLEWMGWINTKTGEATYVEEFKGRFVFSLDTSVSTAYLQISSLKAEDTAVYYCARWDFYHYVEAMDYWGQGTTVTVSS VL: DIQMTQSPSSLSASVGDRVTITCKASAAVGTYVAWYQQKPGKAPKLLIYSASYRKRGVPSRFSGSGSGTDFTLTISSLQPEDFATYYCHQYYTYPLFTFGQGTKLEIKR |  |  |  | 86500 | 2.25 | 
5 | antibody with heavy chain CH7A (D99Y) and light chain 2F1 (antibody, V domains shown, Bivalent form) VH: QVQLVQSGSELKKPGASVKVSCKASGYTFTEFGMNWVRQAPGQGLEWMGWINTKTGEATYVEEFKGRFVFSLDTSVSTAYLQISSLKAEDTAVYYCARWDFYYYVEAMDYWGQGTTVTVSS VL: DIQMTQSPSSLSASVGDRVTITCKASAAVGTYVAWYQQKPGKAPKLLIYSASYRKRGVPSRFSGSGSGTDFTLTISSLQPEDFATYYCHQYYTYPLFTFGQGTKLEIKR |  |  |  | 114000 | 1.73 | 
6 | antibody with heavy chain CH7A (E102Q) and light chain 2F1 (antibody, V domains shown, Bivalent form) VH: QVQLVQSGSELKKPGASVKVSCKASGYTFTEFGMNWVRQAPGQGLEWMGWINTKTGEATYVEEFKGRFVFSLDTSVSTAYLQISSLKAEDTAVYYCARWDFYDYVQAMDYWGQGTTVTVSS VL: DIQMTQSPSSLSASVGDRVTITCKASAAVGTYVAWYQQKPGKAPKLLIYSASYRKRGVPSRFSGSGSGTDFTLTISSLQPEDFATYYCHQYYTYPLFTFGQGTKLEIKR |  |  |  | 198000 | 1.63 | 
7 | antibody with heavy chain CH7A (V101F) and light chain 2F1 (antibody, V domains shown, Bivalent form) VH: QVQLVQSGSELKKPGASVKVSCKASGYTFTEFGMNWVRQAPGQGLEWMGWINTKTGEATYVEEFKGRFVFSLDTSVSTAYLQISSLKAEDTAVYYCARWDFYDYFEAMDYWGQGTTVTVSS VL: DIQMTQSPSSLSASVGDRVTITCKASAAVGTYVAWYQQKPGKAPKLLIYSASYRKRGVPSRFSGSGSGTDFTLTISSLQPEDFATYYCHQYYTYPLFTFGQGTKLEIKR |  |  |  | 59400 | 3.18 | 
8 | anti-CEA antibody with heavy chain CH1A1E and light chain 2F1 (antibody, V domains shown) VH: QVQLVQSGAEVKKPGASVKVSCKASGYTFTEFGMNWVRQAPGQGLEWMGWINTKTGEATYVEEFKGRFTMTTDTSTSTAYMELRSLRSDDTAVYYCARWDFYDYVEAMDYWGQGTTVTVSS VL: DIQMTQSPSSLSASVGDRVTITCKASAAVGTYVAWYQQKPGKAPKLLIYSASYRKRGVPSRFSGSGSGTDFTLTISSLQPEDFATYYCHQYYTYPLFTFGQGTKLEIKR |  |  |  |  |  | kon [4]: 21100 M⁻¹ s⁻¹; Kd [5]: 20 nM
9 | anti-CEA antibody with heavy chain CH1A1G and light chain 2F1 (antibody, V domains shown) VH: QVQLVQSGAEVKKPGASVKVSCKASGYTFTEFGMNWVRQAPGQGLEWMGWINTKTGEATYVEEFKGRVTMTTDTSTSTAYMEIRSLRSDDTAVYYCARWDFYDYVEAMDYWGQGTTVTVSS VL: DIQMTQSPSSLSASVGDRVTITCKASAAVGTYVAWYQQKPGKAPKLLIYSASYRKRGVPSRFSGSGSGTDFTLTISSLQPEDFATYYCHQYYTYPLFTFGQGTKLEIKR |  |  |  |  |  | kon [4]: 73000 M⁻¹ s⁻¹; Kd [5]: 6.1 nM
10 | 1C8 x 2F1 (Fab, V domains shown, also called 1C8 x 2F1 hc/lc, monovalent; copies: 1 + 1) VH: QVQLVQSGSELKKPGASVKVSCKASGYTFTEFGMNWVRQAPGQGLEWMGWINTKTGEATYVEEFKGRFVFSLDTSVSTAYLQISSLKAEDTAVYYCARWDFYHYVEAMDYWGQGTTVTVSS VL: DIQMTQSPSSLSASVGDRVTITCKASAAVGTYVAWYQQKPGKAPKLLIYSASYRKRGVPSRFSGSGSGTDFTLTISSLQPEDFATYYCHQYYTYPLFTFGQGTKLEIK |  |  |  |  |  | Kd [6]: 128 nM; koff [6]: 0.0087 s⁻¹; kon [6]: 68100 M⁻¹ s⁻¹
11 | 1C8 x 2F1 (bivalent) (antibody, V domains shown, bivalent form of the clone; copies: 2 + 2) VH: QVQLVQSGSELKKPGASVKVSCKASGYTFTEFGMNWVRQAPGQGLEWMGWINTKTGEATYVEEFKGRFVFSLDTSVSTAYLQISSLKAEDTAVYYCARWDFYHYVEAMDYWGQGTTVTVSS VL: DIQMTQSPSSLSASVGDRVTITCKASAAVGTYVAWYQQKPGKAPKLLIYSASYRKRGVPSRFSGSGSGTDFTLTISSLQPEDFATYYCHQYYTYPLFTFGQGTKLEIK | 0.66 | 0.000636 | 968000 |  |  | 
12 | 1C8 x 3A1 (antibody, V domains shown, bivalent form) VH: QVQLVQSGSELKKPGASVKVSCKASGYTFTEFGMNWVRQAPGQGLEWMGWINTKTGEATYVEEFKGRFVFSLDTSVSTAYLQISSLKAEDTAVYYCARWDFYHYVEAMDYWGQGTTVTVSS VL: DIQMTQSPSSLSASVGDRVTITCKASANVGNNVAWYQQKPGKAPKLLIYLASNRSGGVPSRFSGSGSGTDFTLTISSLQPEDFATYYCHQYYTYPLFTFGQGTKLEIK | 0.888 | 0.000257 | 289000 |  |  | 
13 | 3A1 (bivalent) (antibody, V domains shown, bivalent form of the clone) VH: QVQLVQSGSELKKPGASVKVSCKASGYTFTEFGMNWVRQAPGQGLEWMGWINTKTGEATYVEEFKGRFVFSLDTSVSTAYLQISSLKAEDTAVYYCARWDFYDYVEAMDYWGQGTTVTVSS VL: DIQMTQSPSSLSASVGDRVTITCKASANVGNNVAWYQQKPGKAPKLLIYLASNRSGGVPSRFSGSGSGTDFTLTISSLQPEDFATYYCHQYYTYPLFTFGQGTKLEIK | 1.5 | 0.000364 | 242000 |  |  | 
14 | H3 Full (5) 8 x 2F1 (antibody, V domains shown, bivalent form; copies: 2 + 2) VH: QVQLVQSGSELKKPGASVKVSCKASGYTFTEFGMNWVRQAPGQGLEWMGWINTKTGEATYVEEFKGRFVFSLDTSVSTAYLQISSLKAEDTAVYYCARWDFFEYFKTMDYWGQGTTVTVSS VL: DIQMTQSPSSLSASVGDRVTITCKASAAVGTYVAWYQQKPGKAPKLLIYSASYRKRGVPSRFSGSGSGTDFTLTISSLQPEDFATYYCHQYYTYPLFTFGQGTKLEIK | 0.28 | 0.000271 | 993000 |  |  | 
15 | H3 Full (5) 19 x 2F1 (bivalent) (antibody, V domains shown, bivalent form of the clone; copies: 2 + 2) VH: QVQLVQSGSELKKPGASVKVSCKASGYTFTEFGMSWVRQAPGQGLEWMGWINTKTGEATYVEEFKGRFVFSLDTSVSTAYLQISSLKAEDTAVYYCARWDAFEYVKALDYWGQGTTVTVSS VL: DIQMTQSPSSLSASVGDRVTITCKASAAVGTYVAWYQQKPGKAPKLLIYSASYRKRGVPSRFSGSGSGTDFTLTISSLQPEDFATYYCHQYYTYPLFTFGQGTKLEIK | 0.16 | 0.000284 | 1.76e+06 |  |  | 
